For orientation: pKd means the negative decadic logarithm of the Kd, by convention in mol/L. Read a high pKd as a small Kd.

pKd: −log10 of the molar value.

Results on 2 substances are retold here after article PMC7857403.

Experiment [1] deals with SARS-CoV-2 spike receptor binding domain (SARS-CoV-2) (UniProt P0DTC2).
Experiment [2] shares this target. The experiment can be described thus: BLI. In general terms: In BLI a coated tip is dipped into the sample, and binding shifts an interference pattern.

The substance LCB1 (designed binder) displayed an other in experiment [1] of 23.5 pM. Moreover, the pKd in experiment [2] was > 9.00. Turning to LCB3 (designed binder), in experiment [2], the pKd is > 9.00.
